# From paper PMC4015189 (Cell, 2014)
# B1: NuMA NTD (domain or fragment, human, UniProt Q14980 1-400, looked up)
# chain: MTLHATRGAALLSWVNSLHVADPVEAVLQLQDCSIFIKIIDRIHGTEEGQQILKQPVSERLDFVCSFLQKNRKHPSSPECLVSAQKVLEGSELELAKMTMLLLYHSTMSSKSPRDWEQFEYKIQAELAVILKFVLDHEDGLNLNEDLENFLQKAPVPSTCSSTFPEELSPPSHQAKREIRFLELQKVASSSSGNNFLSGSPASPMGDILQTPQFQMRRLKKQLADERSNRDELELELAENRKLLTEKDAQIAMMQQRIDRLALLNEKQAASPLEPKELEELRDKNESLTMRLHETLKQCQDLKTEKSQMDRKINQLSEENGDLSFKLREFASHLQQLQDALNELTEEHSKATQEWLEKQAQLEKELSAALQDKKCLEEKNEILQGKLSQLEEHLSQLQDN
# B2: NuMA-bonsai-tail II-GFP (other, human, UniProt Q14980 1-400, looked up)
# chain: MTLHATRGAALLSWVNSLHVADPVEAVLQLQDCSIFIKIIDRIHGTEEGQQILKQPVSERLDFVCSFLQKNRKHPSSPECLVSAQKVLEGSELELAKMTMLLLYHSTMSSKSPRDWEQFEYKIQAELAVILKFVLDHEDGLNLNEDLENFLQKAPVPSTCSSTFPEELSPPSHQAKREIRFLELQKVASSSSGNNFLSGSPASPMGDILQTPQFQMRRLKKQLADERSNRDELELELAENRKLLTEKDAQIAMMQQRIDRLALLNEKQAASPLEPKELEELRDKNESLTMRLHETLKQCQDLKTEKSQMDRKINQLSEENGDLSFKLREFASHLQQLQDALNELTEEHSKATQEWLEKQAQLEKELSAALQDKKCLEEKNEILQGKLSQLEEHLSQLQDNSALLSLPGYRPTTRSSARRSQAGVSSGAPPGRNSFYMGTCQDEPEQLDDWNRIAELQQRNRVCPPHLKTCYPLESRPSLSLGTITDEEMKTGDPQETLRRASMQPIQIAEGTGITTRQQRKRVSLEPHQGPGTPESKKATSCFPRPMTPRDRHEGRKQSTTEAQKKAAPASTKQADRRQSMAFSILNTPKKLGNSLLRRGASKKALSKASPNTRSGTRRSPRIA
# B3: NuMA-tail II-GFP (domain or fragment, human, UniProt Q14980 1868-2091, looked up)
# chain: SALLSLPGYRPTTRSSARRSQAGVSSGAPPGRNSFYMGTCQDEPEQLDDWNRIAELQQRNRVCPPHLKTCYPLESRPSLSLGTITDEEMKTGDPQETLRRASMQPIQIAEGTGITTRQQRKRVSLEPHQGPGTPESKKATSCFPRPMTPRDRHEGRKQSTTEAQKKAAPASTKQADRRQSMAFSILNTPKKLGNSLLRRGASKKALSKASPNTRSGTRRSPRIA
# B4: EB1-GFP (natural protein, human, UniProt Q15691 1-268, looked up)
# chain: MAVNVYSTSVTSDNLSRHDMLAWINESLQLNLTKIEQLCSGAAYCQFMDMLFPGSIALKKVKFQAKLEHEYIQNFKILQAGFKRMGVDKIIPVDKLVKGKFQDNFEFVQWFKKFFDANYDGKDYDPVAARQGQETAVAPSLVAPALNKPKKPLTSSSAAPQRPISTQRTAAAPKAGPGVVRKNPGVGNGDDEAAELMQQVNVLKLTVEDLEKERDFYFGKLRNIELICQENEGENDPVLQRIVDILYATDEGFVIPDEGGPQEEQEEY
# Legend:
# [1] = target: the molecule itself; assay: light scattering
# [2] = target: microtubules; assay: single-molecule TIRF microscopy
# [3] = target: the molecule itself; assay: SEC
Binder,stoichiometry N [1],binding lifetime [2],stoichiometry N [3]
B1,2,–,–
B2,–,3.6 ± 0.2 s,2
B3,–,2.8 ± 0.2 s,–
B4,–,1.2 ± 0.2 s,–
